Reference: the RNAGym collection of RNA variant scans (doi:10.7554/elife.90254)

B1: LINE1-mini (parent)
chain: GGCAGAGCUCAACACAGCGUGGCAAAGUGGCUGUGGCUAGACUGCC

Variants of: B1
Experiment: self-cleavage, relative activity (ratio to wild type); higher = more cleavage; in vitro, sequencing; the parent is a self-cleaving ribozyme

Variant	self-cleavage
G35C A41G	0.08
G35C A41U	0.13
G35C A41C	0.06
U34C U43C	0.04
U34C U43A	0.11
U34C U43G	0.31
G35U C46G	0.09
G35U C46A	0.11
G35U C46U	0.1
C37U U38G	0.03
C37U U38A	0.04
C37U U38C	0.06
G35U U43G	0.07
G35U U43C	0.05
G35U U43A	0.15
G36C A41C	0.05
G36C A41G	0.11
G36C A41U	0.14
U38A	0.47
G35C G40A	0.1
G35C G40U	0.09
G35C G40C	0.08
C37G G40U	0.08
C37G G40C	0.08

Variant	self-cleavage
C37G G40A	0.08
G35A C46U	0.1
G35A C46G	0.15
G35A C46A	0.11
G35U C37G	0.05
G35U C37A	0.23
G35U C37U	0.06
U34G G44U	0.07
U34G G44C	0.07
U34G G44A	0.04
U34G C37A	0.06
U34G C37U	0.1
U34G C37G	0.07
U34G C45G	0.13
U34G C45A	0.06
U34G C45U	0.19
G36A U43A	0.07
G36A U43G	0.01
G36A U43C	0.31
C37A G44A	0.13
C37A G44U	0.18
C37A G44C	0.07
G35C C42U	0.05
G35C C42G	0.04

Variant	self-cleavage
G35C C42A	0.1
U34G	0.24
G36U C45G	0.12
G36U C45A	0.15
G36U C45U	0.11
C37A A39U	0.22
C37A A39C	0.12
C37A A39G	0.05
C37G U43A	0.07
C37G U43G	0.05
C37G U43C	0.09
G35A G36A	0.17
G35A G36U	0.19
G35A G36C	0.17
G35C C37U	0.03
G35C C37G	0.09
G35C C37A	0.08
U34G G36A	0.07
U34G G36U	0.11
U34G G36C	0.05
G36C U43G	0
G36C U43A	0.08
G36C U43C	0.04
U34G U43A	0.21

Variant	self-cleavage
U34G U43C	0.07
G35A C37A	0.14
G35A C37G	0.02
G35A C37U	0.06
U38A C46A	0.35
G35C A39C	0.13
G35C A39U	0.06
G35C A39G	0.09
C37G C45A	0.03
C37G C45G	0.08
C37G C45U	0.03
G35U	0.16
G35A	0.16
G35C	0.11
G35C G36A	0.05
G35C G36U	0.09
G35C G36C	0.03
G36U C42U	0.06
G36U C42A	0.06
G36U C42G	0.03
C37G A39G	0.02
C37G A39U	0.08
C37G A39C	0.06
G35C G44U	0.06

Variant	self-cleavage
G35C G44A	0.09
G35C G44C	0.05
C37U A39C	0.14
C37U A39U	0.04
C37U A39G	0.02
G35C C45G	0.03
G35C C45U	0.08
G35C C45A	0.06
C37G C46A	0.02
C37G C46U	0.04
C37G C46G	0.17
U38A C45G	0.26
U38A C45U	0.59
U38A C45A	0.2
C37U	0.07
C37G	0.05
C37A	0.08
C37G C42A	0.09
C37G C42U	0.02
C37G C42G	0.02
C37A C42G	0.06
C37A C42U	0.16
C37A C42A	0.05
G36U C46A	0.1

Variant	self-cleavage
G36U C46G	0.08
G36U C46U	0.1
G36A C46A	0.14
G36A C46U	0.26
G36A C46G	0.34
G35U G36A	0.16
G35U G36C	0.11
G35U G36U	0.1
U38A C42A	0.1
U38A C42G	0.07
U38A C42U	0.21
U34G A41G	0.05
U34G A41U	0.17
U34G A41C	0.04
G36C G40U	0.18
G36C G40A	0.09
G36C G40C	0.08
G35U G40C	0.06
G35U G40U	0.12
G35U G40A	0.09
G36C G44C	0.11
G36C G44A	0.04
G36C G44U	0.08
G36U A41U	0.1

Variant	self-cleavage
G36U A41C	0.05
G36U A41G	0.15
G36A G44A	0.43
G36A G44C	0.15
G36A G44U	0.15
U34G C46U	0.19
U34G C46A	0.18
U34G C46G	0.14
G36C C37A	0.1
G36C C37G	0.07
G36C C37U	0.06
C37A C46G	0.06
C37A C46U	0.04
C37A C46A	0.05
C37U A41G	0.04
C37U A41U	0.06
C37U A41C	0.02
C37U C45U	0.04
C37U C45G	0.08
C37U C45A	0.06
G35A A41C	0.04
G35A A41G	0.05
G35A A41U	0.14
G35A U38G	0.02

Variant	self-cleavage
G35A U38C	0.06
G35A U38A	0.1
C37A A41G	0.12
C37A A41C	0.03
C37A A41U	0.08
G35A U43C	0.07
G35A U43A	0.09
G35A U43G	0.03
G36U U38A	0.05
G36U U38C	0.11
G36U U38G	0.02
U34G C42U	0.1
U34G C42A	0.07
U34G C42G	0.05
G35U G44A	0.13
G35U G44U	0.11
G35U G44C	0.07
G36A A39U	0.22
G36A A39G	0.39
G36A A39C	0.27
G36U	0.08
G36A	0.2
G36C	0.1
C37A G40A	0.19

Variant	self-cleavage
C37A G40C	0.2
C37A G40U	0.2
G35A C45U	0.13
G35A C45A	0.13
G35A C45G	0.13
G36U G44C	0.08
G36U G44A	0.06
G36U G44U	0.09
U34G A39G	0.07
U34G A39U	0.09
U34G A39C	0.05
G36U C37U	0.03
G36U C37G	0.05
G36U C37A	0.05
G35U C45U	0.12
G35U C45G	0.07
G35U C45A	0.12
G36A G40U	0.47
G36A G40C	0.27
G36A G40A	0.29
G35A A39C	0.08
G35A A39U	0.12
G35A A39G	0.07
U34G G40A	0.03

Variant	self-cleavage
U34G G40C	0.07
U34G G40U	0.05
G35U A41C	0.08
G35U A41U	0.14
G35U A41G	0.08
G35A G44A	0.1
G35A G44C	0.07
G35A G44U	0.09
G36C U38G	0.02
G36C U38A	0.06
G36C U38C	0.05
G36U A39G	0.05
G36U A39U	0.07
G36U A39C	0.08
C37U C42A	0.12
C37U C42U	0.1
C37U C42G	0.03
G36A A41U	0.44
G36A A41G	0.2
G36A A41C	0.05
G36A C45U	0.8
G36A C45A	0.14
G36A C45G	0.13
C37A U38C	0.03

Variant	self-cleavage
C37A U38A	0.04
C37A U38G	0.03
C37A C45A	0.19
C37A C45G	0.17
C37A C45U	0.08
G35U A39U	0.1
G35U A39C	0.11
G35U A39G	0.22
G36U U43G	0.1
G36U U43C	0.06
G36U U43A	0.04
G35U C42U	0.11
G35U C42G	0.05
G35U C42A	0.08
C37A U43G	0.08
C37A U43C	0.05
C37A U43A	0.13
G35C U43G	0.09
G35C U43C	0.12
G35C U43A	0.11
C37G U38C	0.04
C37G U38A	0.03
C37G U38G	0.01
U38A A39C	0.49

Variant	self-cleavage
U38A A39G	0.25
U38A A39U	0.85
G36C C45G	0.04
G36C C45A	0.07
G36C C45U	0.29
G36U G40U	0.19
G36U G40A	0.13
G36U G40C	0.09
C37U C46G	0.04
C37U C46U	0.06
C37U C46A	0.07
U34C U38C	0.07
U34C U38G	0.06
G35C C46A	0.1
G35C C46G	0.06
G35C C46U	0.06
G36A U38G	0.03
G36A U38C	0.12
G36A U38A	0.08
G36A C37G	0.05
G36A C37U	0.31
G36A C37A	0.11
G35C U38G	0.02
G35C U38A	0.16

Variant	self-cleavage
G35C U38C	0.05
C37U U43C	0.06
C37U U43G	0.11
C37U U43A	0.11
U34G G35A	0.06
U34G G35C	0.12
U34G G35U	0.07
U34G U38C	0.16
U34G U38A	0.3
U34G U38G	0.03
G36C C42G	0.07
G36C C42A	0.05
G36C C42U	0.09
G36C A39U	0.23
G36C A39G	0.07
G36C A39C	0.05
C37U G40U	0.16
C37U G40A	0.14
C37U G40C	0.24
G35U U38A	0.12
G35U U38G	0.03
G35U U38C	0.09
C37G G44U	0.07
C37G G44A	0.04

Variant	self-cleavage
C37G G44C	0.03
G35A G40A	0.07
G35A G40U	0.05
G35A G40C	0.08
G35A C42U	0.09
G35A C42A	0.06
G35A C42G	0.04
G36C C46G	0.08
G36C C46U	0.05
G36C C46A	0.13
C37G A41U	0.03
C37G A41G	0.03
C37G A41C	0.02
C37U G44C	0.05
C37U G44U	0.25
C37U G44A	0.1
G36A C42G	0.07
G36A C42A	0.16
G36A C42U	0.15
U38A A41C	0.04
U38A A41G	0.14
U38A A41U	0.1
